From patent publication US20220267440A1 (ABSOS, published 2022)

Columns and labels:
[1] = target: T1, recombinant human CD47 (Novoprotein cat no. C321, lot no. 0329689) (human, UniProt Q08722 19-139); assay: SPR summary table, 25 C; kd fixed
T1 construct: Bought reagent
Description: (§1) Affinity was determined for five selected AlivaMab Mouse monoclonal hybridoma supernatants (Biosensor Tools, Salt Lake City, Utah). Binding kinetics were measured at 25° C. using a BioRad ProteOn XPR36 optical biosensor equipped with GLM sensor chips and equilibrated with running buffer (HBS, 0.005% TWEEN-20, 0.1 mg/mL BSA, pH 7.4).
(§2) CD47 was tested in a three-fold dilution series starting at 100 nM.

[2] = target: T1, recombinant human CD47 (Novoprotein cat …); assay: SPR (ProteOn XPR36), mAb captured on anti-mouse Fc, CD47 as analyte, 25 C, 1:1 model
Description: (§3) Binding kinetics were measured at 25° C. using a BioRad ProteOn XPR36 optical biosensor equipped with GLM sensor chips and equilibrated with running buffer (HBS, 0.005% TWEEN-20, 0.1 mg/mL BSA, pH 7.4).
as §2

[3] = target: T1, recombinant human CD47 (Novoprotein cat …); assay: SPR summary table, 25 C; dissociation rate constant fixed at 1e-5 s^-1; summary table; kd fixed at 1e-5
Description: as §1, §2

[4] = target: T1, recombinant human CD47 (Novoprotein cat …); assay: SPR (ProteOn XPR36), mAb captured on anti-mouse Fc, CD47 as analyte, 25 C; kd fixed, KD a rough estimate
Description: as §1, §2

[5] = target: T2, recombinant CD47-Fc (Sino Biologics) (human, UniProt Q08722 19-139); assay: competition ELISA: HIS-tagged SIRP α binding to plate-bound CD47-Fc, antibody titrated
T2 construct: Bought reagent; also called human CD47-Fc; not shown: Fc

[6] = target: T1, recombinant human CD47 (Novoprotein cat …); assay: SPR, antibodies binned by kd at 25 C (value is the column's head)
Description: as §3, §2

[7] = target: T1, recombinant human CD47 (Novoprotein cat …); assay: SPR (ProteOn XPR36), mAb captured on anti-mouse Fc, CD47 as analyte, 25 C; no decay detected, kd fixed at 1e-5 in the fit; no decay seen; kd fixed at 1e-5 in the fit
Description: as §1, §2

[8] = target: T1, recombinant human CD47 (Novoprotein cat …); assay: SPR summary table, 25 C
Description: as §3, §2

Kd [1]: ~9 pM
kon [2]: 1.18e+06 M⁻¹ s⁻¹
koff [3]: ≤ 1e-05 s⁻¹
Kd [4]: ≤ 8.5 pM
IC50 [5]: 2200 pM
koff [6]: ≤ 1e-05 s⁻¹
koff [7]: ≤ 1e-05 s⁻¹
kon [8]: 1.18e+06 M⁻¹ s⁻¹
B1: anti-CD47 AlivaMab antibody 139 (antibody, IgG1, V domains shown)
VH: QVQLQESGPGLVKPSETLSLTCTVSGGSISNYYWSWIRQPPGKGLEWIGYIYYSGSTNYNPSLKSRVTISVDTSKNQFSLKLSSVTAADTAVYYCARSRYFDLWGRGTLVTVSS
VL: DIQMTQSPSAMSASVGDRVTITCRASQGISIYLAWFQQKPGKVPKRLIYAASSLQSGVPSRFSGSGSGTEFTLTISSLQPEDFATYYCLQHTSYPYTFGQGTKLEIK
notes: Chimeric AlivaMab Mouse mAb from hybridoma: human V, CH1 and upper hinge, mouse middle hinge, CH2 and CH3, human kappa light chain
